According to patent US20090041770A1:

target: human FcRn fused to a His-tag and glutathione S transferase (FcRn-His-GST), complex of FcRn heavy chain with beta-2-microglobulin (human) (UniProt P55899); assay: AlphaScreen competition

| Substance | FcRn Binding ratio Variant / WT |
| --- | --- |
| P271S (antibody) | 1.14 |
| E318Y (antibody) | 6.14 |
| T223K (antibody) | 2.97 |
| L235V (antibody) | 1.31 |
| H285Q (antibody) | 1.38 |
| S298T (antibody) | 2.13 |
| S239L (antibody) | 4.6 |
| H268M (antibody) | 1.88 |
| G236W (antibody) | 1.52 |
| Y278D (antibody) | 1.79 |
| P238L (antibody) | 1.71 |
| A327L (antibody) | 1.55 |
| T335H (antibody) | 1.16 |
| F241Y/F243Y/V262T/V264T (antibody) | 1.89 |
| L235N (antibody) | 1.32 |
| T335P (antibody) | 1.45 |
| S239T (antibody) | 1.12 |
| G236E (antibody) | 1.46 |
| V264F (antibody) | 1.07 |
| E269M (antibody) | 1.11 |
| Y300M (antibody) | 1.1 |
| A330P (antibody) | 5.48 |
| E269V (antibody) | 1.38 |
| S298E (antibody) | 1.54 |

| Substance | FcRn Binding ratio Variant / WT |
| --- | --- |
| P238N (antibody) | 1.15 |
| E272P (antibody) | 2.17 |
| E283Y (antibody) | 1.42 |
| L234N (antibody) | 1.06 |
| L234V (antibody) | 1.45 |
| L328F (antibody) | 2.06 |
| T225K (antibody) | 5.68 |
| V266I (antibody) | 1.17 |
| P232K (antibody) | 1.56 |
| S239E/V264I/S298A/A330Y/I332E (antibody) | 10.1 |
| P228Y (antibody) | 1.45 |
| G236Y (antibody) | 1.52 |
| E269K (antibody) | 1.23 |
| V303E (antibody) | 1.63 |
| V264I/I332E (antibody) | 1.7 |
| S239D (antibody) | 1.73 |
| T335S (antibody) | 1.42 |
| S324T (antibody) | 1.07 |
| E294G (antibody) | 1.25 |
| E269F (antibody) | 1.51 |
| S239Q/I332Q (antibody) | 1.04 |
| P271V (antibody) | 1.06 |
| N286Y (antibody) | 1.45 |
| P238H (antibody) | 1.46 |

| Substance | FcRn Binding ratio Variant / WT |
| --- | --- |
| H285E (antibody) | 1.93 |
| L328G (antibody) | 1.16 |
| E294K (antibody) | 1.16 |
| E318L (antibody) | 3.61 |
| A327H (antibody) | 1.29 |
| F241W/F243W (antibody) | 1.12 |
| I332Q (antibody) | 1.2 |
| S239D/D265H/N297D/I332E (antibody) | 1.26 |
| S239E/I332E (antibody) | 1.34 |
| T260E (antibody) | 5.49 |
| F243E (antibody) | 1.14 |
| Y300N (antibody) | 1.14 |
| E272T (antibody) | 2.46 |
| E272L (antibody) | 1.81 |
| L328Q/I332E (antibody) | 4.29 |
| N286E (antibody) | 2.12 |
| G281D (antibody) | 1.33 |
| G237S (antibody) | 1.29 |
| E333M (antibody) | 5.46 |
| P291I (antibody) | 1.15 |
| G236P (antibody) | 1.41 |
| K320N (antibody) | 2.01 |
| L234G (antibody) | 2.54 |
| P331Y (antibody) | 6.06 |

| Substance | FcRn Binding ratio Variant / WT |
| --- | --- |
| E318R (antibody) | 1.17 |
| P271A (antibody) | 1.01 |
| I332D (antibody) | 1.75 |
| P238K (antibody) | 5.01 |
| T299W (antibody) | 1.09 |
| V303Y (antibody) | 1.15 |
| V263I (antibody) | 2.71 |
| S239E/V264I/A330Y/I332E (antibody) | 2.36 |
| D265F/N297E/I332E (antibody) | 1.38 |
| S239Q/I332N (antibody) | 1.11 |
| L328A (antibody) | 1.32 |
| T223E (antibody) | 2.04 |
| A330L/I332E (antibody) | 1.5 |
| A330Y/I332E (antibody) | 1.53 |
| P291Q (antibody) | 1.24 |
| E258Y (antibody) | 1.07 |
| S239D/E272Y/I332E (antibody) | 1.31 |
| P227K (antibody) | 1.45 |
| Y300E (antibody) | 1.27 |
| L234I (antibody) | 1.26 |
| H285W (antibody) | 1.33 |
| E233W (antibody) | 1.64 |
| L235Q (antibody) | 1.67 |
| G237Y (antibody) | 1.92 |

| Substance | FcRn Binding ratio Variant / WT |
| --- | --- |
| R255E (antibody) | 1.16 |
| G236D (antibody) | 1.53 |
| I332E (antibody) | 1.32 |
| Y296L (antibody) | 2.78 |
| A330F (antibody) | 25.3 |
| P271T (antibody) | 3.88 |
| S239V (antibody) | 1.17 |
| D249Y (antibody) | 2.57 |
| E233T (antibody) | 1.19 |
| N276V (antibody) | 1.27 |
| F241L/V262I (antibody) | 1.37 |
| L235T (antibody) | 1.65 |
| T335M (antibody) | 1.35 |
| S239R (antibody) | 1.04 |
| E269Y (antibody) | 24.8 |
| A327K (antibody) | 1.01 |
| E283H (antibody) | 6.25 |
| S324G (antibody) | 2.74 |
| T225E (antibody) | 4.89 |
| P291H (antibody) | 2.56 |
| F241L (antibody) | 1.99 |
| G237D (antibody) | 1.84 |
| S298H (antibody) | 3.99 |
| N286P (antibody) | 2.9 |
